Measurements: PMC7711741
Read-outs that look alike come from different tables or passages of the source. Values belong to the substance of their own block, whether it stands above or below them.

Experiments:
[1] = target: mupain-1 (synthetic construct)
[2] = target: mupain-1 (synthetic construct); assay: SPR
[3] = target: mupain-1 (synthetic construct); conditions: cited from earlier work
[4] = target: mupain-1 (synthetic construct); remark: listed apart in the source
[5] = target: urokinase-type plasminogen activator (muPA) (Mus musculus) (UniProt P06869); conditions: cited from earlier work
urokinase-type plasminogen activator (muPA) (Mus musculus), sequence (P06869 180-433): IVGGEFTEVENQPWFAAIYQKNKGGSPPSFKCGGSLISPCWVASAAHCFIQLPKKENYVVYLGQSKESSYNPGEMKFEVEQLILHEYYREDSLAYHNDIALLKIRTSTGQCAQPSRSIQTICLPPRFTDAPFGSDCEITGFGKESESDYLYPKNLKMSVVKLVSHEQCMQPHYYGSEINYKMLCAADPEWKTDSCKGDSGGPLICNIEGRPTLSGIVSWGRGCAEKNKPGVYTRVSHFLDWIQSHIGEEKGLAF

[6] = target: mupain-1 (synthetic construct); conditions: cited from earlier work; remark: listed apart in the source
[7] = target: mupain-1 (synthetic construct); conditions: cited from earlier work; remark: listed apart in the source
[8] = target: mupain-1 (synthetic construct); conditions: cited from earlier work; remark: listed apart in the source
[9] = target: mupain-1 (synthetic construct); conditions: cited from earlier work; remark: listed apart in the source
[10] = target: mupain-1 (synthetic construct); remark: listed apart in the source
[11] = target: mupain-1 (synthetic construct); conditions: cited from earlier work; remark: listed apart in the source

plasma kallikrein, P03952, sequence (P03952 391-638): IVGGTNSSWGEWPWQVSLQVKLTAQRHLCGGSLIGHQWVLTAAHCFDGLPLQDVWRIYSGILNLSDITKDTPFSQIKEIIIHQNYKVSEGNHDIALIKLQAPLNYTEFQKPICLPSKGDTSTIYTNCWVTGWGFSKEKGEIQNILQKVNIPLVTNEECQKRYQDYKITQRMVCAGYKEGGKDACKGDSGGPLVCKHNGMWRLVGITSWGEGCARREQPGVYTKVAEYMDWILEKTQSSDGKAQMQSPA
beta-trypsin, sequence (P00760 24-246): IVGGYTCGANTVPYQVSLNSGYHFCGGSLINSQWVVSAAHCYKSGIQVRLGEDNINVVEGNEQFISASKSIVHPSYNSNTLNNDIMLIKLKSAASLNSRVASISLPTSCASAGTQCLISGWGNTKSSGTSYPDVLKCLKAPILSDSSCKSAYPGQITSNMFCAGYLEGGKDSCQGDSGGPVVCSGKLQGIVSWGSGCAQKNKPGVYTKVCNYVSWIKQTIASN
plasmin (from UniProt P20918), sequence (P20918 582-812): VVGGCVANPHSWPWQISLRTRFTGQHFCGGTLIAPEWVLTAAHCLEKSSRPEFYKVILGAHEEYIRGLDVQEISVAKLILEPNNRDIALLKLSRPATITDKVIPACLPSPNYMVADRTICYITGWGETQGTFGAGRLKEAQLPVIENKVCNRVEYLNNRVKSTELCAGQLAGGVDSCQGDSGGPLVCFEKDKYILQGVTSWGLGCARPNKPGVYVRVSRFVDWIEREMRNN
plasma kallikrein, P26262, sequence (P26262 391-638): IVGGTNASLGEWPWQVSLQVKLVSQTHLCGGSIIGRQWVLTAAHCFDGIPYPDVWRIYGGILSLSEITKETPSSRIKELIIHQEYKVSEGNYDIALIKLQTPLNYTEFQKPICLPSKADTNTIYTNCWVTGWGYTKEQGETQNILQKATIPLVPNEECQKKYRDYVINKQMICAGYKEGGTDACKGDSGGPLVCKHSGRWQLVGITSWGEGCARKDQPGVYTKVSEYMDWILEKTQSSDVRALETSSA
factor XIa catalytic domain, sequence (P03951 388-625): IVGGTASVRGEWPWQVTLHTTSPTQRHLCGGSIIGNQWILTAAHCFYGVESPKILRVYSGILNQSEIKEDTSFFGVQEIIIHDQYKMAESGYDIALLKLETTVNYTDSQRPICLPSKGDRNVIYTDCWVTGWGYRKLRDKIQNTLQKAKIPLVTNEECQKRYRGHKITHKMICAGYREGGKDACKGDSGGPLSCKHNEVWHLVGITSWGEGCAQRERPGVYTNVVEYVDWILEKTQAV
urokinase-type plasminogen activator, sequence (P06869 157-178): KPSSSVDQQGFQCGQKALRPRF
plasmin (from UniProt P00747), sequence (P00747 581-810): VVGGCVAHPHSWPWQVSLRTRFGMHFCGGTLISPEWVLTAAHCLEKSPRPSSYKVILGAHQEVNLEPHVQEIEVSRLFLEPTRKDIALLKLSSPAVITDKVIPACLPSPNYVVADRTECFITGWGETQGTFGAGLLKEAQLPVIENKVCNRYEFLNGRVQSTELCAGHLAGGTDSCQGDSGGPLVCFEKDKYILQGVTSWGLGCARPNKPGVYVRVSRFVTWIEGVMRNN

Ki [1]: > 1000 µM
Kd [2]: > 1000 µM
Substance: plasma kallikrein, P03952

Substance: beta-trypsin (from UniProt P00760)
Ki [3]: 20.7 µM

Ki [4]: > 1000 µM
Substance: plasma kallikrein, P26262

Substance: mupain-1
Ki [5]: 0.55 µM

Substance: plasmin (from UniProt P00747)
Ki [6]: > 1000 µM

Substance: plasmin (from UniProt P20918)
Ki [7]: > 1000 µM

Substance: urokinase-type plasminogen activator (from UniProt P06869)
Ki [8]: 0.55 µM

Substance: urokinase-type plasminogen activator (from UniProt P00749)
Ki [9]: > 1000 µM

Ki [10]: > 1000 µM
Substance: KLK1, P06870

Substance: factor XIa catalytic domain (from UniProt P03951)
Ki [11]: > 1000 µM
